Data taken from patent US20250043028A1 (Hoffmann-La Roche, published 2025).
Changes are numbered by the printed parent chain.

B1: “2+1 IgG Crossfab”; VH/VL exchange (LC007/V9) (anti-MCSP/anti-huCD3) (bispecific antibody)
chain 1: not shown
chain 2: DIVLTQSPSSLSASLGDRVTISCSASQGIRNYLNWYQQRPDGTVKLLIYYTSSLHSGVPSRFSGSGSGTDYSLTISNLEPEDIATYYCQQYSKLPWTFGGGTKLEIKRTVAAPSVFIFPPSDEQLKSGTASVVCLLNNFYPREAKVQWKVDNALQSGNSQESVTEQDSKDSTYSLSSTLTLSKADYEKHKVYACEVTHQGLSSPVTKSFNRGEC
chain 3: DIQMTQSPSSLSASVGDRVTITCRASQDIRNYLNWYQQKPGKAPKLLIYYTSRLESGVPSRFSGSGSGTDYTLTISSLQPEDFATYYCQQGNTLPWTFGQGTKVEIKSSASTKGPSVFPLAPSSKSTSGGTAALGCLVKDYFPEPVTVSWNSGALTSGVHTFPAVLQSSGLYSLSSVVTVPSSSLGTQTYICNVNHKPSNTKVDKKVEPKSCGGGGSGGGGSEVQLQESGPGLVKPSQSLSLTCSVTGYSITSGYYWNWIRQFPGNKLEWMGYITYDGSNNYNPSLKNRISITRDTSKNQFFLKLNSVTTEDTATYYCADFDYWGQGTTLTVSSASTKGPSVFPLAPSSKSTSGGTAALGCLVKDYFPEPVTVSWNSGALTSGVHTFPAVLQSSGLYSLSSVVTVPSSSLGTQTYICNVNHKPSNTKVDKKVEPKSCDKTHTCPPCPAPEAAGGPSVFLFPPKPKDTLMISRTPEVTCVVVDVSHEDPEVKFNWYVDGVEVHNAKTKPREEQYNSTYRVVSVLTVLHQDWLNGKEYKCKVSNKALGAPIEKTISKAKGQPREPQVCTLPPSRDELTKNQVSLSCAVKGFYPSDIAVEWESNGQPENNYKTTPPVLDSDGSFFLVSKLTVDKSRWQQGNVFSCSVMHEALHNHYTQKSLSLSPGK
chain 4: EVQLVESGGGLVQPGGSLRLSCAASGYSFTGYTMNWVRQAPGKGLEWVALINPYKGVSTYNQKFKDRFTISVDKSKNTAYLQMNSLRAEDTAVYYCARSGYYGDSDWYFDVWGQGTLVTVSSASVAAPSVFIFPPSDEQLKSGTASVVCLLNNFYPREAKVQWKVDNALQSGNSQESVTEQDSKDSTYSLSSTLTLSKADYEKHKVYACEVTHQGLSSPVTKSFNRGEC
notes: vectors transfected 1:2:1:1 (second heavy chain : light chain : first heavy chain-heavy chain Crossfab : light chain Crossfab); also called 2+1 IgG Crossfab (V9)
B2: “2+1 IgG Crossfab, inverted”; CL/CH1 exchange (LC007/V9) (anti-MCSP/anti-huCD3) (bispecific antibody)
chain 1: B1 chain 2
chain 2: EVQLQESGPGLVKPSQSLSLTCSVTGYSITSGYYWNWIRQFPGNKLEWMGYITYDGSNNYNPSLKNRISITRDTSKNQFFLKLNSVTTEDTATYYCADFDYWGQGTTLTVSSASTKGPSVFPLAPSSKSTSGGTAALGCLVKDYFPEPVTVSWNSGALTSGVHTFPAVLQSSGLYSLSSVVTVPSSSLGTQTYICNVNHKPSNTKVDKKVEPKSCDKTHTCPPCPAPEAAGGPSVFLFPPKPKDTLMISRTPEVTCVVVDVSHEDPEVKFNWYVDGVEVHNAKTKPREEQYNSTYRVVSVLTVLHQDWLNGKEYKCKVSNKALGAPIEKTISKAKGQPREPQVCTLPPSRDELTKNQVSLSCAVKGFYPSDIAVEWESNGQPENNYKTTPPVLDSDGSFFLVSKLTVDKSRWQQGNVFSCSVMHEALHNHYTQKSLSLSPGK
chain 3: DIQMTQSPSSLSASVGDRVTITCRASQDIRNYLNWYQQKPGKAPKLLIYYTSRLESGVPSRFSGSGSGTDYTLTISSLQPEDFATYYCQQGNTLPWTFGQGTKVEIKSSASTKGPSVFPLAPSSKSTSGGTAALGCLVKDYFPEPVTVSWNSGALTSGVHTFPAVLQSSGLYSLSSVVTVPSSSLGTQTYICNVNHKPSNTKVDKKVEPKSC
chain 4: not shown
B3: “2+1 IgG Crossfab”; CL/CH1 exchange (LC007/anti-CD3) (anti-MCSP/anti-huCD3) (bispecific antibody)
chain 1: B1 chain 2
chain 2: B2 chain 2
chain 3: QAVVTQESALTTSPGETVTLTCRSSTGAVTTSNYANWVQEKPDHLFTGLIGGTNKRAPGVPARFSGSLIGDKAALTITGAQTEDEAIYFCALWYSNLWVFGGGTKLTVLSSASTKGPSVFPLAPSSKSTSGGTAALGCLVKDYFPEPVTVSWNSGALTSGVHTFPAVLQSSGLYSLSSVVTVPSSSLGTQTYICNVNHKPSNTKVDKKVEPKSC
chain 4: not shown
B4: “2+1 IgG Crossfab, inverted”; CL/CH1 exchange (LC007/anti-CD3) (anti-MCSP/anti-huCD3) (bispecific antibody)
chain 1: B1 chain 2
chain 2: B2 chain 2
chain 3: B3 chain 3
chain 4: not shown
B5: “2+1 IgG scFab, LALA” (anti-MCSP/anti-huCD3) (bispecific antibody)
chain 1: B1 chain 2
chain 2: not shown
chain 3: B2 chain 2 with G324P
notes: also called Fc-LALA; copies: 2 + 1 + 1

Experiments:
[1] = molecular target: T1, human MCSP expressed on tumor cells (Colo-38, WM266-4, MV-3) (human, UniProt Q6UVK1 30-2322); assay: cell-based or functional assay
T1 sequence (Q6UVK1 30-2322): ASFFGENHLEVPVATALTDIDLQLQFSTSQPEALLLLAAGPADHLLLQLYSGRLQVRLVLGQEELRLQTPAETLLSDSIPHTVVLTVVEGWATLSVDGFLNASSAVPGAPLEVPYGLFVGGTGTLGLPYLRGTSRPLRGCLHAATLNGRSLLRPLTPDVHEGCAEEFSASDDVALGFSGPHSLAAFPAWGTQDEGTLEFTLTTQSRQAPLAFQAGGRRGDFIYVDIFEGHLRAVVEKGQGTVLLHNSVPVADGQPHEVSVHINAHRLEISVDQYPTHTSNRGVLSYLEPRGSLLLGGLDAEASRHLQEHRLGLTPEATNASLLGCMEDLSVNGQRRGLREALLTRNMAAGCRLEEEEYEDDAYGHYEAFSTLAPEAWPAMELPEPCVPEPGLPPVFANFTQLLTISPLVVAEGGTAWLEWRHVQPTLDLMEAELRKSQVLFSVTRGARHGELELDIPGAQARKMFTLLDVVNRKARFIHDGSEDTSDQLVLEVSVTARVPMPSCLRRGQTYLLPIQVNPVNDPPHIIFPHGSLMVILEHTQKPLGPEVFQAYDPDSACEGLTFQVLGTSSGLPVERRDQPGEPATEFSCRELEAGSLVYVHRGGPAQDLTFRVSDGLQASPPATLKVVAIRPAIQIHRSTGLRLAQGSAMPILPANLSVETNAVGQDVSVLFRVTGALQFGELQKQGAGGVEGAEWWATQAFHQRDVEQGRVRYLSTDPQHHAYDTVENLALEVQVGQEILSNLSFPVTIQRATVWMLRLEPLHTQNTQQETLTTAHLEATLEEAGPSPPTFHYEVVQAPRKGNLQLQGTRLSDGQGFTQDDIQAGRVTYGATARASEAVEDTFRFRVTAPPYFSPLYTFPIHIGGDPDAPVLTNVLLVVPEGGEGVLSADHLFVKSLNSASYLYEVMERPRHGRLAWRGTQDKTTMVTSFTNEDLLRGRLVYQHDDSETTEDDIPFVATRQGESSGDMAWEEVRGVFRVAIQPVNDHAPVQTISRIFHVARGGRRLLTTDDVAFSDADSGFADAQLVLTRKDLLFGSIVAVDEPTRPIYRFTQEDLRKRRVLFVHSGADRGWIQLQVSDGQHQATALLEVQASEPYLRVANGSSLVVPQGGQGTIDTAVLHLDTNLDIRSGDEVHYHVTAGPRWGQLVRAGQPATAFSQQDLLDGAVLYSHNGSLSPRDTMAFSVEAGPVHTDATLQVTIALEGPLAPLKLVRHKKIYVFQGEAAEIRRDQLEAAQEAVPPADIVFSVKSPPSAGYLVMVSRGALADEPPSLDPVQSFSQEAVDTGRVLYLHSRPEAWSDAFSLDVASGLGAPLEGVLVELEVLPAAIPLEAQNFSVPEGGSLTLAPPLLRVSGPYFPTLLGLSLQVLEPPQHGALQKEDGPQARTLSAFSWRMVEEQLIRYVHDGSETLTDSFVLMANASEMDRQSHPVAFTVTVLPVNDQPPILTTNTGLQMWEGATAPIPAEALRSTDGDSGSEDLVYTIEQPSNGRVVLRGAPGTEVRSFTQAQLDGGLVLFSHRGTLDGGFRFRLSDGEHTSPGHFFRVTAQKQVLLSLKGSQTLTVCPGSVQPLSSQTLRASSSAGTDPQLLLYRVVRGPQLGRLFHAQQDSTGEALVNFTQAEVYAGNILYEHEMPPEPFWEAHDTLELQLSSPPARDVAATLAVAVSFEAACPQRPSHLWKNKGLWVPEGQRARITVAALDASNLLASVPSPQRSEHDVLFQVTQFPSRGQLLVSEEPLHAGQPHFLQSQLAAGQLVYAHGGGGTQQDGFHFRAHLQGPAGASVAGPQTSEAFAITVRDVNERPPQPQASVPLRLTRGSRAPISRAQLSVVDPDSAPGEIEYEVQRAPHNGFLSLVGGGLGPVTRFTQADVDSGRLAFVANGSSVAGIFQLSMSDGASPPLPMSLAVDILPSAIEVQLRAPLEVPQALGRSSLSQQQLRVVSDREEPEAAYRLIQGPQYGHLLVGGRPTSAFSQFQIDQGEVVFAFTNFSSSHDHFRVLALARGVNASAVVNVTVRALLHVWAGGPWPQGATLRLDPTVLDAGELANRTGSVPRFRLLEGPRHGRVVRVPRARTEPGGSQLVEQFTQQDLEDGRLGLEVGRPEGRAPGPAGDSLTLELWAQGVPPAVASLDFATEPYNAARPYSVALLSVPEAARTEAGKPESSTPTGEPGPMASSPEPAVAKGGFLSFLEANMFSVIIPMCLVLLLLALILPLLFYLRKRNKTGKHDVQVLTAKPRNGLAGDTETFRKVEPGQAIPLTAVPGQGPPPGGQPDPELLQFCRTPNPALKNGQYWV

[2] = molecular target: T1, human MCSP expressed on tumor cells …; assay: cell-based or functional assay; remark: listed apart in the source
[3] = molecular target: T2, human CD3 expressed on Jurkat cells (human, UniProt P07766 23-207); assay: flow cytometry on Jurkat cells
T2 construct: CD3 as part of the T cell receptor complex on Jurkat cells; also called huCD3; human CD3 on cells
T2 sequence (P07766 23-207 limits assumed): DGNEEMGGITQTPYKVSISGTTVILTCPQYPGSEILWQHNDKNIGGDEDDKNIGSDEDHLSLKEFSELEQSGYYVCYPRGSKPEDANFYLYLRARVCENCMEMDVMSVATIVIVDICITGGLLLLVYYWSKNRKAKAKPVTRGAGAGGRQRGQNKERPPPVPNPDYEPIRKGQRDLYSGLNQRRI

[4] = molecular target: T1, human MCSP expressed on tumor cells …; assay: flow cytometry on WM266-4 cells
[5] = molecular target: T1, human MCSP expressed on tumor cells …; assay: FACS on Colo-38 cells, dose titration
Procedure: Binding of the different bispecific constructs to CD3 on Jurkat cells (ATCC #TIB-152), and the respective tumor antigen on target cells, was determined by FACS. Briefly, cells were harvested, counted and checked for viability. 0.15-0.2 million cells per well (in PBS containing 0.1% BSA; 90 μl) were plated in a round-bottom 96-well plate and incubated with the indicated concentration of the bispecific constructs and corresponding IgG controls (10 μl) for 30 min at 4° C. For a better comparison, all constructs and IgG controls were normalized to same molarity. […] Bound constructs were detected using a FACSCantoII (Software FACS Diva). The “(scFv)₂” molecule was detected using a FITC-conjugated anti-His antibody (Lucerna, #RHIS-45F-Z). […] Unless otherwise indicated, cells were fixed with 100 μl/well fixation buffer (BD #554655) for 15 min at 4° C. in the dark, centrifuged for 6 min at 400×g and kept in 200 μl/well PBS containing 0.1% BSA until the samples were measured with FACS CantoII. EC50 values were calculated using the GraphPad Prism software.
In another experiment, the purified “2+1 IgG scFab” bispecific construct (SEQ ID NOs 5, 17, 19) and the corresponding anti human MCSP IgG were analyzed by flow cytometry for dose-dependent binding to human MCSP on Colo-38 human melanoma cells, to determine whether the bispecific construct binds to MCSP via one or both of its “arms”.

[6] = molecular target: T3, HuFcγRIIIa-V158-K6H6 (human, UniProt P08637 17-208); assay: SPR Biacore T100, 25 °C, kinetic fit, one concentration (1000 nM); receptor captured via anti-Penta His
T3 construct: Captured on an anti-Penta His antibody on a CM5 chip; also called human FcγRIIIa-V158; human FcγRIIIa; not shown: K6H6 tag
T3 sequence (P08637 17-208 F176V): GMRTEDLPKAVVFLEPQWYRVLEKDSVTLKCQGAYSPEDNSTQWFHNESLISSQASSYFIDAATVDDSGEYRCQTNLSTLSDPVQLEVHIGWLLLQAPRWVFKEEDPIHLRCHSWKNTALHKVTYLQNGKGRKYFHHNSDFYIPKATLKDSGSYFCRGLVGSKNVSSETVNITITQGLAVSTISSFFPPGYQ
Procedure: For analyzing interaction of different Fc-variants with human FcγRIIIa-V158 and murine FcγRIV direct coupling of around 6,500 resonance units (RU) of the anti-Penta His antibody (Qiagen) is performed on a CM5 chip at pH 5.0 using the standard amine coupling kit (Biacore, Freiburg/Germany). HuFcγRIIIa-V158-K6H6 and muFcγRIV-aviHis-biotin are captured for 60 s at 4 and 10 nM respectively.
Constructs with different Fc-mutations are passed through the flow cells for 120 s at a concentration of 1000 nM with a flow rate of 30 μl/min. The dissociation is monitored for 220 s. Bulk refractive index differences are corrected for by subtracting the response obtained in a reference flow cell. Here, the Fc-variants are flown over a surface with immobilized anti-Penta His antibody but on which HBS-EP has been injected rather than HuFcγRIIIa-V158-K6H6 or muFcγRIV-aviHis-biotin. Affinity for human FcγRIIIa-V158 and murine FcγRIV was determined for wild-type Fc using a concentration range from 500-4000 nM.
The steady state response was used to derive the dissociation constant KD by non-linear curve fitting of the Langmuir binding isotherm. Kinetic constants were derived using the Biacore T100 Evaluation Software (vAA, Biacore AB, Uppsala/Sweden), to fit rate equations for 1:1 Langmuir binding by numerical integration.

Binder	EC50 of killing (LDH release) of MV-3 cells, human PBMCs, E:T 10:1, 21 h [1] [nM]	EC50 of killing (LDH release) of WM266-4 cells, human PBMCs, E:T 10:1, 21 h [1] [nM]	EC50 [pM] of T cell-mediated killing (LDH release) of MV-3 cells, human PBMCs, E:T 10:1, about 24 h [2] [pM]	EC50 [pM] of T cell-mediated killing (LDH release) of WM266-4 cells, human PBMCs, E:T 10:1, about 24 h [2] [pM]	EC50 [3] [nM]	EC50 [4] [nM]	EC50 (read off the curve) [5] [nM]	Kd [6] [nM]
B1	0.0092	0.0331	10	12.4	1.66	0.95	–	–
B2	–	–	4.1	3.7	6.1	0.57	–	–
B3	–	–	11	11.3	10.3	3.1	–	–
B4	–	–	3	7.1	32	3.4	–	–
B5	–	–	–	–	–	–	~0.06	2130
